The target in assay [1] is zebrafish Pcmt (protein L-isoaspartyl methyltransferase) (zebrafish) (UniProt Q92047).
Assay [2] addresses zebrafish Pcmtl (protein L-isoaspartyl methyltransferase paralog) (zebrafish).

Starred links: 1 amine or outer side, 2 acyl side, 3 side chain; linkers in the order of their positions; H or OH if unused. Non-standard residues stand in square brackets, D forms with d. No end group written: not given here. βAsp = O=C(O)[C@H](CC(=O)[*:2])N[*:1]

Sequence of UniProt Q92047 (Q92047 whole entry): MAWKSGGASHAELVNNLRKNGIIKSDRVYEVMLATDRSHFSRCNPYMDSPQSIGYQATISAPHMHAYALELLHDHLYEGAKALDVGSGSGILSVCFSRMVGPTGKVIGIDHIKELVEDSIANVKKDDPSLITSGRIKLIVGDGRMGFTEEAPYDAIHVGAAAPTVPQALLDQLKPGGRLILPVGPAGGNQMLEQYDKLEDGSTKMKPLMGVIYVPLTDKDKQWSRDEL

B1: isoaspartyl substrate peptide KASAisoDLAKY (peptide)
peptide: KASA[βAsp]LAKY
For B1, the KM for the methyl acceptor peptide substrate, isoaspartyl methyltransferase activity (methanol vapor diffusion assay, 30°C, 0.2 M Bis-Tris pH 6.0, 14.5 μM SAM, 0.2–60 μM peptide) in assay [1] was 4.2 μM; in assay [2], 3.6 μM.

These data come from article PMC7859441.
